The values that follow come from publication PMC5849677, “A novel C3d-containing oligomeric vaccine provides insight into the viability of testing human C3d-based vaccines in mice” (Immunobiology, 2018).

For one test, the target named is T1, hC3dg (aa 955-1303)-Fc (human, UniProt P01024 955-1303).
T1 construct: human complement C3, C3dg fragment, aa 955-1303 (of pre-pro C3); also called hC3dg-Fc; hC3d with the g fragment attached
The test can be described thus: SPR; Biacore; hC3d or C3d(g)-Fc fusions immobilised by amine coupling (94.3-96.2 RU); Fc-fusion analytes 0.195-50 nM in HBS-EP+, physiological salt, 360 s injection; steady state affinity model; apparent KD. The settings on record: both partners purified. On the technique in general: In SPR one partner is held on a chip, and binding of the other changes the refractive index at the surface.

The target of a further test is T2, mC3d-Fc (mouse, UniProt P01027 1002-1303).
T2 construct: mouse complement C3, C3d fragment
The test is described as above. The settings on record: both partners purified.

T2 sequence (P01027 1002-1303): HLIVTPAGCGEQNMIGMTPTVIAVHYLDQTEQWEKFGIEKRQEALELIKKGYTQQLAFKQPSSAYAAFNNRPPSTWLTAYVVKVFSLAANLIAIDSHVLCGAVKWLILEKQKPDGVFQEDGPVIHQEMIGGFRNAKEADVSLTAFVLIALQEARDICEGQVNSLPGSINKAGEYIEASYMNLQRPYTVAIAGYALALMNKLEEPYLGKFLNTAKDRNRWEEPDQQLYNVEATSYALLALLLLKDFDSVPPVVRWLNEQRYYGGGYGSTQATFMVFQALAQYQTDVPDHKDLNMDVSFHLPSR
T1 sequence (P01024 955-1303): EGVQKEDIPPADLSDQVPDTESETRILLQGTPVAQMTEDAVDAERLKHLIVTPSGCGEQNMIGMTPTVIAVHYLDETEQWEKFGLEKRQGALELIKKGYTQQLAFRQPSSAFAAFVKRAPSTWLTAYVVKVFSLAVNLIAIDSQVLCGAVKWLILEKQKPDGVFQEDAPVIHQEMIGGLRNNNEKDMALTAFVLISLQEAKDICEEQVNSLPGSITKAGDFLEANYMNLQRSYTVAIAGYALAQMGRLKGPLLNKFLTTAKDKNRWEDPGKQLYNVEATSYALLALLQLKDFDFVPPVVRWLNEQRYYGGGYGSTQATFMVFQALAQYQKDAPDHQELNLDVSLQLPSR

B1: hCR2 (SCR1-4)-Fc (Fc fusion)
chain: ISCGSPPPILNGRISYYSTPIAVGTVIRYSCSGTFRLIGEKSLLCITKDKVDGTWDKPAPKCEYFNKYSSCPEPIVPGGYKIRGSTPYRHGDSVTFACKTNFSMNGNKSVWCQANNMWGPTRLPTCVSVFPLECPALPMIHNGHHTSENVGSIAPGLSVTYSCESGYLLVGEKIINCLSSGKWSAVPPTCEEARCKSLGRFPNGKVKEPPILRVGVTANFFCDEGYRLQGPPSSRCVIAGQGVAWTKMPVCEE
notes: human complement receptor 2, short consensus repeats 1-4; also called hCR2-Fc; soluble hCR2; source: CHO cells, transfected, purified from tissue culture supernatant
As for B1, the Kd with hC3dg (aa 955-1303)-Fc was 3.1 to 5.1 nM. Besides, in the test with mC3d-Fc, the Kd came to 1.47 ± 0.47 nM and the “fold higher affinity than for hC3d-Fc” value amounted to 4 fold.
